# Results from PMC5352752, “Discovery and characterization of an F420-dependent glucose-6-phosphate dehydrogenase (Rh-FGD1) from Rhodococcus jostii RHA1” (Applied Microbiology and Biotechnology, 2016).
# B1: F420-dependent glucose-6-phosphate dehydrogenase Rh-FGD1 from Rhodococcus jostii RHA1 (enzyme, UniProt Q0RVH7 1-335, looked up)
# chain: MVIKFGYKASAEQFGPRELVELGVLAEAHGMDSATVSDHFQPWRHEGGHAPFSLAWMTAVGERTSRLQLGTSVMTPTFRYNPAVVAQAFATMGCLYPGRIMLGVGTGEALNEIATGFAGEWPEFKERFARLREAVALMRELWLGDRVDFEGNYYKTVGASIYDVPEGGIPVYIAAGGPVVARYAGRSGDGFICTSGKGMELYTEKLMPAVAEGAEKADRDVAEIDKMIEIKISYDTDPELALENTRFWAPLSLTPEQKHSIDDPIEMERAADALPIEQVAKRWIVASDPDEAVAQIRPYLDAGLNHLVFHAPGHDQKRFLELFQRDLAPRLRGLA
# notes: each monomer is comprised of residues 1-334; The native enzyme (tag cleaved) was used for crystallization; also called RHA1_RS43115; native Rh-FGD1; source: E. coli C41(DE3), purified (HisTrap, His-SUMO tag cleaved with SUMO protease, second HisTrap, Superdex 200); not shown: His6, N-terminal, cleaved; SUMO, N-terminal, cleaved
# Target: the molecule itself
# Test: SEC; gel permeation analysis in solution, data not shown
protein,measurement,value
B1,stoichiometry N,2
